This data set is described as follows: soluble on expression in E. coli; label from the status in PepcDB or PDB records.
As for “MSLRITGERIYLRPFQIIDANQKLAFHLANKAFFEGYSMERDDRFYTIEEQQSLISRLEDFAASDVEYYYGIFLNDTDELIGTINLFSILRESLQSAFIGYFLDKKHNGNGYATEAVQLIVDFGFDILGLHRIEAGVMPKNERSKQVLLKAGFHLEGLAVQNVRINGTWEDHQVLAIINPGDEGHHHHHH”, the “soluble on expression in E. coli” value is recorded as “soluble”.

In the case of “MSLRKFMVLGYGEIGKLAIKHLLSHKVECIYLIVRDKSKASDLEGEIVEVLDFNEKNQVINEIDCIVSCTAAPHTVVRNEDIKTEGETIHIYDLAVPRDVDKELSEKERVILKDIDEISKIDDKNKKIRKERMEEYKHIVEESIDEFLNWLKIREVSSKIRNIKIRENEICSERIKTFSNKGNGENAKLAERMIKSTADAYVNRAIELLKSEALKGSDSYCAEIIEKIFLTEGHHHHHH”, the “soluble on expression in E. coli” value was “not soluble”. The result for “MSLRKIKIKEIVCIIGLLGTLTAHSQNTVWQIGNKDKSAKEFKFYKNDYRNYINDVYLYEVGRNHSADFPYFLPGPSDAWAGGISGQAVIGFSLAEAPSPTTQIQLRLLFAETHPSSPPRLEVRLNSFEKSIQTPKGTNPEYLDTKETTSKELSVTLDIPADEFRAGNNTLTIRNISGSWVAFDQIKLTSDSPLQTNNLTTKASLVSSAFSPVLVVGKKKELRQPVKIKAVNWHHKKRPVELQVGNFPPERYVLSPGINNIETSIPEVTAPCELPIILKEQGKTVSKINEKATPVKKWTVYLVQHTHTDIGYTKPQTEILSEHLRYIDYAIEYCEQTKDYTNDAKFRWTCESAWAVDEYLKNRPEEQVNKLKKYIAEGQIEVASMYFNMSEIVDENSFKTFLQPVKEFRKHGIPSALAMQNDVNGIAWCLADYLPDLGIKYLWMGEHHYKSQVPFNMPTVFQWESPSGKPILTYRADHYNTGNFWGIEQGDIQKTEPKLLHYLSELERKHYPFDAVGVQYSGYFTDNSPPSIIECKLIREWNEKYAYPKLRSATASEFMDYVTERYGDKIPAYRAAYPDWWTDGFGSAARETAASRKTHSDMTAVEGLLSMAVLKDKCLPQATHQQIEHIHESLLFYDEHTFGASESVSDPLCENSQVQWGEKSAYAWEAVKRTQMLYETSVGLLQGDLRRGKNPTLTIFNTLNWKRSEMLTVYIDFEVIPRNQFFEITDFQGHSLKVQPIRYRREGCYYAIFAEDIPPMGYKTFEIVFKQPSTDTGTITINNASIENHFYKLQLNPDKGTIQSLYDKELNCELVDSSSPWELGAFIYEKLGNRDQLAQYRLDDYNRTGLSECRIIDSSNGPIYQRILLQGKSPGTDEAFGVNLEIKLYHDTKRIELEYAIKRLPETDPSGIYVAFPFQLPEGKLAFDVQGGTVISGKNQLEGTSTDWNTVQNFVSVQNEGHHHHHH” reads “not soluble”; that for “MSLRKVIGIGETILDIIFRNDQPSAAVPGGSVFNGIVSLGRMGVNVCFISETGNDHVGNIILQFMRDNHIPTDHVNVFPDGKSPVSLAFLNEHSDAEYIFYKDYPKQRLDVLFPSINEDDIIVIGSYYALNPVLRDKILELLDIAKEKRAIVYYDPNFRSSHKNEAMKLAPTIIENLEYADIVRGSLEDFYYMYGIKDVEKIYKDKIKFYCPLFLCTAGAERISLRTNAISKEYPVAPLEAVSTIGAGDNFNAGLIYGMLKYDVRYRDLQHLSEETWDKVIQCGQDFAAEVCKSFNNSISGEFAANYREGHHHHHH”, “soluble”; that for “MSLRLEDIQAFLNVVELGSISAAAERMSLSKSVISKRVSDLERHLGVRLLYRSTRNVEPTEAGGFFYKSAKASLQDLNNAAESVALRENDLCGELRVMAPMSFGTLWLGPLVMEFMARNPRLEVVLQLDDRIVDFEKEGYDLAIRITRLQDSSLIARQLGTSRRVVCCSPEYLERHGPLQRIEDILCHPCIGYSHNTPSQLWSFEPRVAGEPARMITPRGRFNTNNGQTMRDAAVRGLGLAMLPLFIAAEDLAAGRLVEALPQERPLDDLIYAMYSRAATLSPKVKLFVQFLQQALGSPPWGVR”, “not soluble”. The value for “MSLRLNDWQLAFEAYLLGEQAQARAVLQDSLIGGPTLDVETGLAIYHNAYMARLQEVMGSDFPAIRHWLGDAEFQALTQAYIRQCPSRHFSLRWLGQGFAEFILGHLVPEQGAPLAELARLEWAFTLAFDAADAQVLTVAAMAGLDVEQWPQLQLRLAPCVQWLDCRYNSVAQWRAVKEQADFPRSALLDQQQLCLVWRADRVCRYRSLPAEEATALRGMIEQRWNFAELCVGLAVTYAEGAPLQAVTWLKQWVEDGLVMRSESEGHHHHHH” was “not soluble”; that for “MSLRLTKGSVKHQAKTEAELKTVKTQLDTQKAQIEKHFAESAELFKTLINDYQKLYRHYATSSNNLLGEKDQKGLFTQQLITATDKSQNEQPRDYSEGASGLFKENKEEEGHHHHHH” was “soluble”; that for “MSLRRSLLLVDDDADHLAVLRCTLESCGFDVSLAPDGAAALALAHARAFDAVVLDIAMPGLSGWEVAERLRAAHGQSFRLVMLSANAEERHGPRGKEPDHDLFLMKPVELSALVDSLGKLLGLEWILSEGGGDTVLAQPRIDVSDSARTHVDRLKSLARIGHLRGLEAEIRSMQETDTGTAPLAARLFDCLDRCDLVAMRRVLEGIEGHHHHHH” was “not soluble”.

With “MSLRTKSWTDDLKVCNQTGVGEAINQIYKDDGRRCEGYESRDKKCLCISDNNTSLYAILSGHNGVTVAENALQEMAAELLLGQLNVCNTDEAVKELIRQSFMSVEKGYFDSINPHVATKTAIQLHLSADGMNQYEISQQFENVLQKLDSLNNALSVGSSAVLALIHRSHLYLGNIGNCRALLCKTDEHDTLTVTQLSVDHNLLNAEEAARLFRLGLMAQNFEGVPLYSTRCIGNYLGKAGYKDCNFLSSATAEPVIFEPEIVGGIQITPACRFLVLMSSGLCRALHEIFPGDASTGNRELVRMISEEFQNQSTLGGVAQSVVHRIVQAHHDTYMQLVEEHRSVTFNSRDDVTLLIRNFNYAEGHHHHHH”, the “soluble on expression in E. coli” value is on record as “soluble”. The value for “MSLRTTDIRVRDLYFEYEDFRYRTPIKFGGVALGRVTLLNVRMTVESAAGKAATGFGSMPLGNVWAYPSRLLTYDQTLGAMRFLASRIADGYRLCGLSGHPIDITHQLEPELLLAGNDFTAIHRPSDPVPKLAVLVVASAFDAALHDAYGKLHGLNCFRTYTREFLPDDLGHYLGAEFNGLHLDDFITHEPKPSMPLYHLVGALDPITPEDVTQPVGDGLPEHLAEWITRDGLTHLKIKLNGDDLGWDVERCVRINAVAEDAQRARGVTTWWYSLDFNERCQNVGYLIEFLQKLRERTPAGYDRVQYVEQPTARDLNAHPENKMHAAAKLKPVVIDESLLDLESLKLSMEMGYTGVAFKACKGQTQTLLLAAAAQKYGLFRCVQDLTCVGASLIHSAGLAAHIPGVAAIESNGRQYCPTANVAWDAKFPGVFTITGGSMNTALLNGVGLGAVSEGHHHHHH” was “soluble”; that for “MSLRTYENVVILTDLTAGTTYYYKIVSTNSTVDHFLSPRVPGDETPFSINAVIDLGVYGEDGYTIKGDKSKKDTIPTINPALNHTTIGRLASTVDDYEFVIHPGDFAYADDWFLSLDNLLDGENAYQAILENFYEQLAPISGRKPYMASPGNHEAACQEIPFTTGLCPDGQKNFTDFMHRFGRTMPSSFTSVSTNDSAKVFANQARELAQPPFWYSFEYGMAHIVMINTETDFEDAPSGKGGSAHLNGGPFGAKNQQLEFLEADLASVDRDVTPWVIVAGHRPWYTAGSACTPCQEAFEDLLYTYGVDLGVFGHVHNAQRFLPVYNSVADPNGMQDPKAPMYIVAGGAGNIEGLSSITKQLDFTEFANDEDYTYSTIRFLDRNHLQVDFINSVSGEVLDTSTLYKSHEARFVREGHHHHHH” was “not soluble”.

For the sequence “MSLSAHVEYFKPPAESELPDNAYGKLVREGYALFVDTKRLAPQFVGNGLNCSNCHLDQGRLANSAPLWGAYPMYPAYRKKNDKVNTFAERLQGCFQFSMNGGKPPAADSPQITALSVYAYWLASKAPLGVELPGRGYPDVAQPAKGYDLKQGAAVYQAQCAVCHGDNGQGQKAGADYVMPPLWGKDSYNWGAGMHRINTAASFIKHNMPLGKGGSLSDQQAWDVAAFVNSHERPQDPRLVEGSIEKTRVKFHANDGVNLYGQTVEGVLIGQGIREGHHHHHH”, the “soluble on expression in E. coli” value is given as “not soluble”. The value for “MSLSAPASEIAALILRGFDDYREQFREITDGARARFEQAQWQEAQRASAQRINLYEEKVAETVAGLRAGLADSELLDVERWPIIKSAYIAQIDLRLDDELAETWFNSIFCGLFSHDNISDGTMFVHTTRPSLRAHARAPYTRTYRPGGDLRQALEKIFDDYRFDVPYDDRERDLERIDALLHSNLPDWVCKDPDLAIELIGSVFYRNKGAYLVGRLFTPDEQWPLVFPLLHREDHGIQFDTVITDEAEVSIIFSFTRSYFMVDVPVPAELVAFLKRLLPGKHLAELYTSIGFYKQGKSEFYRALINHLATTDDRFVMAPGVRGMVMSVFTLPGFNTVFKIIKDRFNPSKSVDHATVIQKYQLVKNHDRVGRLADTQQFADFRFPVSKFEPECLAELLEVAPSTVVMEGDVVLIRHCWTERRMTPLNIYLENASEAQTREALNDYGLAIKQLAAANIFPGDMLLKNFGVTRHGRVVFYDYDEICYLTEVNFRYIPEPRFPEDEMSSEPWYSVGPNDVFPEEFPRFLFVDLNQRRLFAKLHGNLYDAKYWQGLQEQIREGKVIDVFPYRRQETPEQLLEGHHHHHH” was “soluble”. With “MSLSDNAQHLYVNGNVGSSTEEITSVEYSKLLQLKLIDESLSFQWCNNYTVLSIYSMKETFARKTIYIHFPKPLLNKWFTAVVYESSETTSNLCFDVILKDGIFINLSLPIDFILSRTRQNEYPENWLKVLNPYDFSVRPPQCLFHVDNTFSVVFLKDGGLLGLKRIPLEILNDFELQPVLFNDSSYFQSFTRMFSKYDNHNSAVVSAELLNDKYLVTLTNDATIKIWDLTTYQLNAHFDLKEKNQQVNYGAAGKYMIICGSLLFVYLPAGNGSFQVIQLENTHSSRISFKPLNVNIPLNLSSYSIWSLIDIQLVKSSIVKQSGLNLVLLWKSNTVTKLQLLSFEDSLYSSYKWIDGNSTYLSDLLDDSDLITNGNMEKALLNLKSHYSQSTYDDAQKILNKNNVMVQINDPHNQDYLNNLEALLKELHKQYQEPSTLTILDDEIIVVNSLHMYHHSTYKLDSQLETIFFNIFEREGHHHHHH”, the “soluble on expression in E. coli” value is “soluble”. As to “MSLSELIDNRAQRVRTLKGIIKRLHAGDAPDEVRNSLKELVCQTDYSEVMAMEQELIADGMPVEEIQGMCDLHSQVTREVLVQLAPAPVPPGHPVDTFRRENKALRESAARLQKAMNGVLETADDGDASARLLEWRQALNELQDVDKHYQRKEHLLSTCLERHGITGPSKVMWGKDDQIRELLKDTSVALRQSDTSVAELKVLAATTGAAAAGAVHEMIYKEEQILLPICLERFTADEWAEIWASSPRYGWCLVEPRQGYKPFTSEAAGRASVDGGVSLPTGALALEQLIAIFSTLPVDLTFVDANDRVAFFSEGPSRVFARSRTIVGRMVQNCHPPRSVDVVERILSDFREGRQNVAEFWLQFVGRFVHIRYFAVRSEDGRYLGTLEVTQDVGPIRALEGERRLLEYAEPSEGHHHHHH”, the “soluble on expression in E. coli” value was “soluble”. The result for “MSLSFASSACFNEAGTMFRIEPNLIKAIALVESNLKKDSIGKNRDKKNNIKSFDYGLMQINQMHIPMLKKRGIIKDERDLLDNPCLNIKIGTEILYKHFSRCGMTWQCLGTYNAGFAMDNQKKRLQYAKKIYIVYTRLNELDNRKALAEGHHHHHH” reads “soluble”.

For the origin of these results see the DeepSol protein solubility set.
